These results are taken from a protein production outcome set (Wang et al. 2014).
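Note: failed if final PepcDB status was selected cloned or expressed and not failed if soluble or beyond.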

The nature of the data set: label from the status in PepcDB records.
In the case of “MNPLHLAAAFASGCLLTLMVHFNGQLAHYGNALFSSWTAHGTGTVAALIYLAIMRPKKDAAAPAKPNAPLWAYCGGVVGAAIVILTSTAVNSPLALSGTIALGLGGQVIFSLLADLFGLFGLPKRRPDVQDMVAVCLILCGSALIILVGRAA”, the protein production result is on record as “failed”.

“MNPTFHADKPIYSQISDWMKKQMITGEWKGEDKLPSVREMGVKLAVNPNTVSRAYQELERAGYIYAKRGMGSFVTSDKALFDQLKKELADAITERFLEEAKSIGLDDQTAIELLIKRSRNHE”: the protein production entry was “not failed”. Next, “MNQHLLGNPKLTVTHVNEVKAGINHIVVDSVQYGNQEMIMEKDGTVEMRDGEKLYINIFRPNKDGKFPVVMSADTYGKDNKPKITNMGALWPTLGTIPTSSFTPEESPDPGFWVPNDYVVVKVALRGSDKSKGVLSPWSKREAEDYYEVIEWAANQSWSNGNIGTNGVSYLAVTQWWVASLNPPHLKAMIPWEGLNDMYREVAFHGGIPDTGFYRFWTQGIFARWTDNPNIEDLIQAQQEHPLFDDFWKQRQVPLSQIKTPLLTCASWSTQGLHNRGSFEGFKQAASEEKWLYVHGRKEWESYYARENLERQKSFFDFYLKEENNDWKDTPHVIYEVRDQFYKGEFKSASAFPLPNAEYTPLYLNAENHTLNHAKISSAHVAQYDSEDKQQDVSFKYTFDKDTELVGNMNLKLWVSTKDSDDMDLFAGIKKLDRRGNEVNFPDFNHIENGQVATGWLRVSHRELDQEKSSIAQPWHKHETELKLSQDEIVPVEIELLPSGTLFKQGETLEVVVKGSEIVIGNSTPGMKTRYEHEETVNKGMHMIYTGGKYDSQLIIPIVN”: “not failed”. With “MNQIAPRRFSGLRIVLLVLLAVLAFLLLMPTRVQPVAWNPAPAPSLSQGPFAENQKLKAVQPVGARDIDGPEALLLEHEQLLSGLHDGRVIQSSLDGSALKVLVNTGGRPLGLARHPDGRLIIADAIKGLLALDSQGQLQTLSTEANGLKFGFTDDVAVDAAGRYAYFSDATSRWGYGHDGEAVIEHGADGRLLRYDFQSGTTEVLLDRLEFANGIALGPDEAYVLVNETGAYRISRYWLKGDKAGSHDLFIDNLPGLPDNLSFNGAGRFWVALYAPRNPLLDATAPYPFVRKMLVRAMTVLPKPVEKRGFVLGLDTQGRVIANLQDGSSGNYSPITTVREYGDALYLGSLTARHMARLSLKEALAP” the entry was “failed”; with “MNQKISPPSQKLDGLFLLALSMAVFFVGVTEFMLSSMLGPLAQAFHTTTSGAAWLISSYAFSYAIAAPLLGYFSDRMQRRKLLLLALVLFAVDTLAIVIAPTLEIAVVLRVIGGIASAIIIPTTFALVAEVVAPQRQAGAMGQVMLGMTLGIAAGPALAGLLSDFFGWAAPFLLVSCGCVLVFLMARQRLPVQAVAPRAEGHALGWCRQWSILRPLIAKGAWNGTGVAGLLLSGEVLRQRYGFSTAQIGVSIAAFGVGLAVGNLAAGYLRRYLKRDEDMLLLVLALLVLSMSTFMLLPLPLPVALCCLGAWGAALGLGAPAGTVVLASRSGPDKGMVLSFAETFNNIAILASVPLAVRLLELKGPPATLWVLGIGLGIGAWFTVLDWFASRRSNEALPLRD”, “failed”; with “MNQKMIIGNAEAICLPELGITHLEARIDTGAQTSSLHVDNIDCFEKDGQSYVAFDLHPDVYHLEQVVRCTAKLKANRKVKSSNGTFEHRCVITTMLRLGDQEWPIDITLTNREKMTYMMLLGRQGMADKVLVDPSQSHLLAS”, “not failed”. Next, “MNQLIFDFAAHDYPSFDKFLGTENAELVYVLRHKHGQFIYVWGEEGAGKSHLLQAWVAQALEAGKNAAYIDAASMPLTDAAFEAEYLAVDQVEKLGNEEQALLFSIFNRFRNSGKGFLLLGSEYTPQQLVIREDLRTRMAYCLVYEVKPLTDQEKIDALASMAAARQVTVDSEIFEYLLKHWRRDMDSLMMMLDTLDNYAVTMGKRITLPLLRQLLKQQETQLEHHHHHH”: “not failed”; “MNQSPSILRKTRKGEYMAFADLAAEKTQGVDYDFLVLDRASAVAIVAPHGGWIEHGTSELATAVAGDDFSLYLFEGLKPKRPHSELHIPSEYFDENRCVDLVSRARIVIGMHGRADGDDPETIWLGGLGKELRDAIAAALEAAGFKAITSGHRLPGEHKNNICNRGINQAGVQLEPCRWSNRCLSATETHSTSATTAIISRLSIAA”: “failed”; “MNQTSSHSSLFSSSLPPVPDRPLSPSGRFNRLSYLAWYGFINLIGLMCLFGTGLIMGIFSLSQVTWDDQLLNALSGSFGFIMFGISILFFYFHVVLMIRRLHDTNRSGWWCLLFFVPVIQFILILYLLFIPGSKASNDYGIPRPSPVWEKILGWMIVIVLLLSLLMLGRLVSFMLGTGHLDFPQELIPKNTGYF”: “failed”. Take “MNQVEMTEFPVGKPQEALYGVASTPDGALWFTLAKGNAIGRLSPDGAVSRFPLPHADGQPTTITCGPDGRPWFTLSSANAIGRLAPDGALRMFELPRPASRPFGIAGGHDGCLWFAEMAGDRIGRITIDGDIEEYDLPVKGGYPSCMAAGRDGLMWFTLNQAGAVGSISATAAPRIFPLGAADAAPVGIASDAQGALWIAQAGNGAIARFDAGGRITEFPLHSRAARPHAIAADAAGNLWFTEWGANRIGRISEAGDLAGYELAAPGSEPHGIAIDPHGCVWAALETGRLVRLQASPRDLEHHHHHH”: the protein production result is given as “failed”. Next, “MNRARIIVAGIGPGGASDITPAVLSAIGRSDVVVGYKYYFRFIEPYLRPDTHCVDTGMKKERQRAEEAFGYALSGKTVCVISSGDAGIYGMAPLIYEMKRAKGVEMDIEVLPGISAFQKAASLLGAPIGHDLCLISLSDLMTPWPIIEKRIVAAASADFVTAIYNPKSEGRYWQLYRFVEIFMQYRSADTPVGLVRQAGREEEQVTVTTLGEFDPEVVDMFTVVLVGNSQSYCYEGHFITPRGYYPEEEIEAKGIGQEIMIKSFRTIEKELHRQDWPLDHKWALLHAIHTTADFDMENILYTDAGAVASLYEMIEAGRLRTIVTDVTMVTSGIRKGALERLGVEAKCYLHDPRVAELAARHGITRTQAGIRLAVEEHPDALFAFGNAPTALQELADLIRRGKASPAGIIAAPVGFVHVQESKHAVKPFRSIPKIIVEGRKGGSNLAATLVNAILCYNDAEQLRPGRDV”: “failed”. “MNRIEHYHDWLRDAHAMEKQAESMLESMASRIDNYPELRARIEQHLSETKNQIVQLETILDRNDISRSVIKDSMSKMAALGQSIGGIFPSDEIVKGSISGYVFEQFEIACYTSLLAAAKNAGDTASIPTIEAILNEEKHMADWLIQHIPQTTEKFLIRSETDGVEAKK”: the protein production entry is recorded as “not failed”. Regarding “MNRIKAVGYENNELKEKAQLLADQLNLQLDQNADTCLFVTPEKLTLKIRNFSLMFADFSAMTWSKRRGEGKRQGLIRACKPTKGIKILDATAGWGKDAAILATFGADVVMLERHPVMAALLADALSRRNEADIQKMCLSLIASDAISFLHSLQEKDYPDIIYIDPMHPERNKSALVKKEMQVLQQLIGTDHDAMELIELSLSHVKSRVVVKWPQKVKPLLPPDASIDGKTVRFDIYMAQFSSN”, the protein production entry is listed as “failed”. Next, “MNRNGLLIALALFAGIGLTFGLFPGLDLWLAGLFYDTAAKTFPMRSMPDLEFARDFAMWVAWAIAAPSIFALVYKMIRPDRPLVMPGRTVAFLLISITLSAGVLTNMTFKSHWGRPRPAAVTEFNGPWQFKAWWDNSGACPKNCSFFSGEGATAYWTFAPAALTPPAVRPYAYAAAFTFGTVTSGLRMAFGGHFFTDVAIAGLVTFLVIWLLYALIYRWAWSRTSDEAIDAALTRAFWPLYRLRLKKWRGQDIGPAPAA”: “failed”. Next, “MNRNGQRRFLEFFAGGGMARLGLGADWACAFANDFDPVKAATYRANFADAGKHFQEGDVFALSAERLPDADLAWASSPCQDFSLAGARAGLAGGRSSAFFGFWSLMRSLSAEGRAPSVIVIENVVGLLTSHGGADFTALCQALHEEGYRFGALEIDAGAFVPQSRPRVFVVATRNPPGDLVGSSAFHTRAVREAAARLPADLQASWVWWGAPSPPARNTDLASMLEPDDRAVW”: “failed”; “MNRNLLLLLCSLFCFIAIGKPSDFPPVPNPPKLINDFAGMLSPAEVAELERKVNTFNDSTSIEISVVIITNLGDYDIAEYAFQLGALWGIGKDKKDNGVLLLISKENRKAFIATGYGMEGVLPDARCKRIIQAELIPQFKRSNYFNGINFTIDAIMRYSKNEYTADPVAANANRIKPAYVLLFIIGVIILVSFLNRNNNSGSNRGGNNGGYGSGGGGLLGGLLGGAIGSGYRGRSYGGGFGSGSSGGGFGGFGGGGFGGGGAGGDW”: “failed”. Turning to “MNRNRLPALTPGLAWSRPMNGAVDHKGYEQPTYDLEFAETATEIRRYGPYLVAEVTMAGDRSTAITRGFRVLARYIFGGNAESRRIEMTVPVSQLPAGEDLWTVRFTMPAVRSASLLPAPKDSRIRFVTVPPSRQAVRRFSGWPTDHALRRQAEGLAHWIAERGLPKREGPYFYFYDSPMTLPWQRRNEVAFGLGEGLEHHHHHH”, the protein production result is recorded as “not failed”. For “MNRPHSATGDRPLALVDEHAHAWSPKTARARFRKGLTGPTAGVAAGHTQANLISVPADWAYDMLLFCTRNPQPCPVLDVTDAGSWTTVLADGADLRTDLPRYRVWRDGELVDEPSDVREHWRDDLVTFLIGCSFTFEWALAAAGVPIRHVEQGRNVPMYVTSRACRPAGRLRGPMVVSMRPVPPAHLSAAIHESSLLPAVHGSPVHCGDPSALGIDDLDRPDFGEAVYREPDDIPVFWACGVTPQAAVMASRPPFALTHAPGQMFLTDARDEQYRVALEHHHHHH”, the protein production entry was “failed”.

For “MNRTARRDGTPEKPRRGSQGGSRGDYGKPKRSHAKPQSANSGRPIKQRKQRDSEMLISNARPARHQHVGRREAGDGSTEG”, the protein production result is “failed”. As for “MNRTLAYKLGAIALLILLLLIPLLMIDGLIRDRQEVRDGVLQDIARSSSYSQRLTGPLLVVPYRRTVREWVTEEKTEKRVLQEREQRGELYFLPDRFALDGQMRTELRYRGIYQARLYHVDNKVAGYFQVPAHYGIEEDLEDYQFETPFLAMGISDIRGIENALRLSLNGASVDFEPGSRVGLLGSGVHAPLQGVDGRQAQRLEYAFDLSLLGSERLDIVPVGRDSQVILKADWPHPSFGGEFLPSEREITAQGFTARWQTSFFATNMEEALRSCVEEQRCDGFQARAFGVGLVDPVDQYLKADRAIKYALLFITLTFAGFFLFEVLKRLAVHPVQYALVGLALAFFYLLLLSLAEHVGFELAYLVSAGACVGLIGFYLCFVLRSVARGLGFSVGLAGLYGLLYGLLSAEDYALLMGSLLLFAVLAAVMVLTRRLDWYGVGRKDFPAVPARA”, the protein production entry was “failed”.

As for “MNRVDLSIFIPDSLTAETGDLKIKTYKVVLIARAASIFGVKRIVIYHDDADGEARFIRDILTYMDTPQYLRRKVFPIMRELKHVGILPPLRTPHHPTGKPVTGEYRQGLTVKRVKKGTLVDIGADKLALCREKLTVNRIMSFRVVRLGKEILIEPDEPEDRYWGYEVLDTRRNLAESLKTVGADVVVATSRNASPITSILDEVKTRMRGAREAAILFGGPYKGLPEIDADIWVNTLPGQCTETVRTEEAVLATLSVFNMLTQIDEKDE”, the protein production entry is recorded as “not failed”. Next, “MNRYQALFQRLSAAQQGAFVPFVTIGDPNPEQSLAIMQTLIDAGADALELGMPFSDPLADGPTIQGANLRALAAKTTPDICFELIAQIRARNPETPIGLLMYANLVYARGIDDFYQRCQKAGVDSVLIADVPTNESQPFVAAAEKFGIQPIFIAPPTASDETLRAVAQLGKGYTYLLSRAGVTGAETKANMPVHALLERLQQFDAPPALLGFGISEPAQVKQAIEAGAAGAISGSAVVKIIETHLDNPAKQLTELANFTQAMKKATKI”: “not failed”; “MNSDPTRERILHGLITLYILKELVKRPMHGYELQKSMFETTGQALPQGSIYILLKTMKERGFVISESSVNEKGQQLTVYHITDAGKKFLCDHSQALQLARKIIDDLLSTVDIIENRN”: “not failed”.
